Where a chain is given by its changes, count along the chain named.
Tests used:
db/db mice = experiment: Blood glucose of db/db mice after injection of test substance; format: in vivo, mouse; conditions: for anti-hyperglycemic effect (blood glucose): peripheral/i.v. injection, db/db, dose not stated; for active duration of anti-hyperglycemic effect in vivo: i.v. injection, hyperglycemic db/db mice
plasmin = plasmin (Homo sapiens, UniProt P00747); experiment: Incubation with plasmin in vitro (proteolysis); format: biochemical; conditions: incubated with plasmin in vitro
Chain of plasmin (P00747 581-810 limits assumed, species assumed): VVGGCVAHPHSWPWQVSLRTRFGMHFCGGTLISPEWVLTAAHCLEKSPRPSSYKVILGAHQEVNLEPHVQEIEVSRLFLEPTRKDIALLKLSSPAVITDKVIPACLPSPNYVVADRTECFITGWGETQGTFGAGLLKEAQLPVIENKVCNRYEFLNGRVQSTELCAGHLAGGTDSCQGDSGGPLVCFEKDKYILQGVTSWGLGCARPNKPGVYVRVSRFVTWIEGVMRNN
Chain of plasmin (P00747 97-580 partner limits assumed, species assumed): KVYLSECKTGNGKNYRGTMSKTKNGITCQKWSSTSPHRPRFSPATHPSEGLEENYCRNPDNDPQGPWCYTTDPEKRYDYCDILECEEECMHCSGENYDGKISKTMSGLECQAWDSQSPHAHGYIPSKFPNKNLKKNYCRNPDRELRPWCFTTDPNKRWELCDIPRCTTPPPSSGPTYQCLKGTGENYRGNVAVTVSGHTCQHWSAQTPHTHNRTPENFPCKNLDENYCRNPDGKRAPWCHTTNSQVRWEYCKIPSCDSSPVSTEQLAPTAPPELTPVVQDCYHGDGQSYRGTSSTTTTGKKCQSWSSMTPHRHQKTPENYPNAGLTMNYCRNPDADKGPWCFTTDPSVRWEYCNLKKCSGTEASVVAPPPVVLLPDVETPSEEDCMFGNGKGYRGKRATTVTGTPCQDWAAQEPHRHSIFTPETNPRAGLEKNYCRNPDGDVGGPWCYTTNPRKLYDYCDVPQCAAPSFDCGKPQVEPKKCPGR
From the text: The recovery of hypothalamic nesfatin-1 in plg^−/−lepr^−/− was consistent to its normalization in food intake and body weight. Fasted mice always had less nesfatin-1 in hypothalamus than their freely feeding counterparties (FIG. 2b). Furthermore, plasminogen deficiency provided a unique approach to study the chronic effect of elevated nesfatin-1 in hyperphagic obese animals, which was impossible for the i.c.v. or i.p. administration due to the short half-time of nesfatin-1. Consequently, agrp and npy were found reduced in plg^−/−lepr^−/−, while pomc was elevated compared with plg^+/+lepr^−/− (FIG. 3), contradicting to the previous report that i.c.v. nesfatin-1 didn't alter the expression of pomc, npy and agrp. Consistent to the present finding, the same group reported the up-regulation of pomc by i.p. nesfatin-1 in NTS recently.
Carefully examining the amino acid sequence of pladin (SEQ ID NO: 23), it has several putative cleavage sites by plasmin (FIG. 11A).

## ADIEEIRSGR LSQELDLVSH (ADIEEIRSGRLSQELDLVSH; A synthetic peptide which was the C-terminal portion of pladin) [SEQ ID NO:22, synthetic 20 amino acids peptide, C-terminal portion of pladin]
db/db mice; i.v., db/db mice
  anti-hyperglycemic activity, fold less than rPladin: more than 3 fold
db/db mice
  anti-hyperglycemic effect (blood glucose): anti-hyperglycemic

## ANAEDIKSGKLSQELDFVSH (amino acids by MALDI-TOF/TOF with Trypsic Peptides) [SEQ ID NO:24, synthetic 20 amino acids peptide, a portion of NUCB1]
db/db mice
  anti-hyperglycemic effect (blood glucose): anti-hyperglycemic

B1: VPVDRAAPPQEDSQATETPDTGLYYHRYLQEVINVLETDGHFREKLQAANAEDIKSGKLSQELDFVSHNVRTKLDELK (protein)
chain: VPVDRAAPPQEDSQATETPDTGLYYHRYLQEVINVLETDGHFREKLQAANAEDIKSGKLSQELDFVSHNVRTKLDELK
modifications: amino acids recombinant peptide of NUCB1
notes: 78 amino acids recombinant peptide, N-terminal portion of NUCB1
db/db mice; i.v., db/db mice, within 3 hours
  molar anti-hyperglycemic activity, fold higher than rPladin or nesfatin-1: at least 2 fold
db/db mice; in vivo
  active duration, fold less than rPladin or nesfatin-1: at least 2 fold
db/db mice
  anti-hyperglycemic effect (blood glucose): anti-hyperglycemic

B2: TKVHNTEPVENARIEPPDTGLYYDEYSAAAALETDPHFREKLQKADIEEIRSGRLSQELDLVSHKVR (protein)
chain: TKVHNTEPVENARIEPPDTGLYYDEYSAAAALETDPHFREKLQKADIEEIRSGRLSQELDLVSHKVR
modifications: amino acid sequence of Mutant A91
db/db mice
  active duration of anti-hyperglycemic effect in vivo: > 24 h

B3: A4: pladin mutant A4 (Lys28→Ala) (protein)
peptide: TKVHNTEPVENARIEPPDTGLYYDEYLAQVIEVLETDPHFREKLQKADIEEIRSGRLSQELDLVSHKVR
plasmin
  proteolysis by plasmin: resistant to plasmin proteolysis
db/db mice
  active duration of anti-hyperglycemic effect in vivo: 18 h

B4: TKVHNTEPVENARIEPPDTGLYYDEYAKAAAAALETDPHFREKLQKADIEEIRSGRLSQELDLVSHKVR (protein)
chain: B3 peptide with L27A, A28K, Q29A, V30A, I31A, E32A, V33A
modifications: amino acid sequence of Mutant A90
db/db mice
  active duration of anti-hyperglycemic effect in vivo: > 24 h

B5: acetylated rPladin: rPladin acetylated with N-acetylimidazole; three Tyr and three Lys residues modified (protein)
peptide: B3 peptide with A28K
modifications: also: three Tyr and three Lys acetylated with N-acetylimidazole
notes: rPladin acetylated with N-acetylimidazole; three Tyr and three Lys residues modified
plasmin
  proteolysis by plasmin: resistant to the proteolysis by plasmin
db/db mice
  active duration of anti-hyperglycemic effect in vivo: 12 h
db/db mice; i.v., db/db mice
  anti-hyperglycemic activity compared with reference peptide: unchanged

B6: A5: pladin mutant A5 (Lys13→Ala as printed; Arg13 in sequence) (protein)
peptide: B3 peptide with R13A, A28K
plasmin
  proteolysis by plasmin: resistant to plasmin proteolysis
db/db mice
  active duration of anti-hyperglycemic effect in vivo: 12 h

B7: TKVHNTEPVENARIEPPDTGLYYDEYAALETDPHFREKLQKADIEEIRSGRLSQELDLVSHKVR (protein)
chain: TKVHNTEPVENARIEPPDTGLYYDEYAALETDPHFREKLQKADIEEIRSGRLSQELDLVSHKVR
modifications: amino acid sequence of Mutant A92
db/db mice
  active duration of anti-hyperglycemic effect in vivo: > 12 h
